Source: patent US7026282B1, “Peptide antagonists of the human urokinase receptor and method for selecting them” (Cancerforskningsfonden AF 1989 (Fonden Til Fremme AF …, priority 1998, dated 2006)
Entries after “also recorded” stand apart in the source; their conditions may differ. Blank lines part the entries; values can stand above or below the molecule they belong to. Positions of bridges follow the written chain, without caps; N, C: chain ends. Non-standard residues stand in square brackets, D forms with d. Residues, ends and D or L forms follow the SMILES beside them. Chains are numbered I, II in the order given. No end group written: not given here. Cha = N[C@@H](CC1CCCCC1)C(=O)O; βAla = NCCC(=O)O

Experiments:
[1] = target: cell-surface uPAR on monolayer cultures of human MDA-MB-231 breast cancer cells (Homo sapiens, UniProt Q03405); assay: Cell binding experiments with 125I-labelled human ATF (uPA/uPAR Binding Assay)
Method: The peptides were tested for their ability to inhibit binding of radio-labelled amino terminal fragment (ATF) of human uPA to monolayer cultures of human MDA-MB-231 breast cancer cells.
MDA-MB-231 BAG cells were harvested by trypsin/EDTA treatment and added to 5% FCS supplemented medium in 24 well cluster plates at a cell density of 100,000 cells per well or as indicated otherwise. For background estimation, wells without cells were included in order to measure binding of ^125I-labelled ligand to the plastic. Next day the adherent monolayers were washed twice in binding-buffer (0.1% bovine serum albumin (BSA; Fraction V, Sigma) and 5 mM Hepes in Eagles MEM supplemented with Glutamax-1, pH 7.4). Before binding experiments, the cells were subjected to acid treatment to liberate receptor-bound endogenous uPA. Each culture well was incubated for 3 min at 23° C. with 200 μL of 0.05 M glycine-HCl, 0.1 M NaCl, pH 3.0, after which 200 μL of 0.5 M Hepes, 0.1 M NaCl pH 7.5 was added to neutralize the acid buffer. The wells were then emptied and washed once with binding buffer. Various competitors diluted in binding buffer were then added to the wells, followed by a pre-incubation at 37° C. for 15 min. Finally, ^125I-labelled ligand was added to each well at a final concentration of 1 nM. […] Aliquots from the wells were finally measured for radioactivity on a γ-counter.

[2] = target: T1, neuramimidase-treated human suPAR (soluble recombinant uPAR) (Homo sapiens, UniProt Q03405); assay: Biacore Binding Assay (surface plasmon resonance), ligand binding to immobilised suPAR; conditions: for koff: Biacore, 5° C., immobilised suPAR, read-out: kdiss (dissociation rate constant, off-rate)
T1 construct: A soluble recombinant variant of human uPAR (suPAR) was expressed in Chinese hamster ovary (dhfr) cells; made in house; host or cells: Chinese hamster ovary (dhfr) cells
Method: Association rate constants (kass), dissociation rate constants (kdiss) and equilibrium binding constants (kd) for various synthetic peptides and receptor binding derivatives of human uPA were determined by surface plasmon resonance (R. Karlsson et al. (1991) J. Immunol. Meths. 145:229–240) using a BIAcore2000™ instrument (Pharmacia Biosensor, Uppsala, Sweden). Due to the low isoelectric point of uPAR (pI≈4.5) terminal sialic acid residues were removed from its N-linked carbohydrates to facilitate chemical immobilisation on the sensor chip. This was accomplished by incubating purified suPAR (1 mg/ml in 50 mM phosphate, 150 mM NaCl, pH 7.4) with 5 μg/ml neuramimidase for 4 hours at 37° C. […] Coupling of the neuramimidase-treated suPAR to a BIAcore sensor chip was achieved by injection of 20 μg/ml suPAR in 10 mM sodium acetate pH 5.0 for 6 minutes at a flow rate of […] per minute using a carboxymethylated dextran matrix (CM5 sensor chip) preactivated with N-hydroxysuccinimide/N-ethyl-N′-[3-([…])propyl]carbodiimide according to the manufacturer's recommendations. Approximately 1,500–2,000 resonance units (RU) were immobilised by this procedure (corresponding to 1–2 ng suPAR/mrn^2).
Sensorgrams (RU versus time) were recorded (FIG. 2) at a flow rate of 10 μl per min at 5° C. using several different concentrations of the ligand (synthetic peptides, uPA, the amino-terminal fragment (ATF) of uPA, or the growth factor domain (GFD) of uPA) in the range of 10 to 1000 nM in running buffer (10 mM HEPES, 150 mM NaCl, 3 mM EDTA (pH 7.4) including 0.005% surfactant P-20). Stock solutions of peptides from combinatorial chemistry were made in DMSO (10 mg peptide/ml DMSO). The sensor chip was regenerated at the end of each run by injection of 0.1 M acetic acid, 0.5 M NaCl. Data obtained from parallel mock coupled flow cells (subjected to the coupling procedure in the presence of buffer only) served as blank sensorgrams for subtraction of changes in bulk refractive index. The sensorgrams obtained were analysed by non-linear least squares fitting using BIAevaluation 2.0 software (Pharmacia Biosensor, Uppsala, Sweden) assuming single-site association and dissociation models.
Purified human suPAR (1 mg/ml in 50 mM phosphate, 150 mM NaCl, pH 7.4) was incubated with 5 μg/ml neuramimidase for 4 hours at 37° C.
In order to couple the neuramimidase-treated suPAR to a BIAcore sensor chip, 20 μg/ml suPAR in 10 mM sodium acetate (pH 5.0) was injected for 6 minutes at a flow rate of 5 μl per minute using a carboxymethylated dextran matrix (CM5 sensor chip), thereby immobilising approximately 1,500–2,000 resonance units (RU), which correspond to 1–2 ng suPAR/mm^2. The CM5 sensor chip was preactivated with N-hydroxysuccinimide/N-ethyl-N′-[3-([…])propyl]carbodiimide in accordance with the manufacturer's recommendations.
Surface plasmon resonance sensorgrams (RU versus time) were recorded at a flow rate of 10 μl per min at 5° C. using several different concentrations of the ligand (i.e. the relevant peptide or GFD) in the range from 10 to 1000 nM in running buffer (10 mM HEPES, 150 mM NaCl, 3 mM EDTA (pH 7.4) including 0.005% surfactant P-20).
The sensor chip was regenerated at the end of each run by injection of 0.1 M acetic acid, 0.5 M NaCl.
Data from parallel mock coupled flow cells (subjected to the coupling procedure in the presence of buffer only) served as blank sensorgrams for subtraction of changes in bulk refractive index.
The obtained sensorgrams were analysed by non-linear least squares fitting using BIAevaluation 2.0 software (Pharmacia Biosensor, Uppsala, Sweden) assuming single-site ssociation and dissociation models.

[3] = Peptide stability in mouse serum ex vivo, read out by ATF cell-binding inhibition; format: in vitro ADME; conditions: 10% mouse serum, up to 24 hours, 37° C.
Method: Mouse blood was collected from anaesthetised mice (femal nu/nu-META/Bom (Bomholtgaard, Ry, Denmark)) by cardiac puncture. The blood samples were allowed to clot for 30 min at room temperature, followed by centrifugation at 1,000×g for 10 min at 20° C., and the sera were sterile filtered using 0.8 μm/0.2 μm filters (Acrodisc PF, Gelman Science, MI) and then stored at 4° C. until use. The peptide antagonists were added to fresh pooled mouse serum at the indicated concentrations (FIG. 5) and incubated at 37° C. for different periods, between 0 hours and 24 hours. Serum incubated samples were diluted 1:10 in binding buffer (0.1% bovine serum albumin and 5 mM Hepes in Eagles MEM supplemented with Glutamax-1, pH 7.4). Subsequently, cell binding experiments in the presence of ^125I-labelled human ATF were performed in duplicates as above, by preincubating MDA-MB-231 BAG cells at 37° C. 15 min with the 1:10 diluted serum incubated samples ± peptides. In parallel, peptides diluted in binding buffer alone were included as controls.
AE118 and AE78 (for comparison) were incubated at 37° C. in the presence of 10% mouse serum for different time intervals, up to 24 hours. The incubation mixtures were tested for their ability to inhibit binding of radio-labelled human uPA amino terminal fragment (ATF) to monolayer cultures of human MDA-MB-231 breast cancer cells, as described in Example 7.

[4] = target: soluble recombinant variant of human uPAR (suPAR) (human) (UniProt Q03405); assay: SPR (Biacore), ligand over immobilised neuramimidase-treated human suPAR
[5] = target: T2, human uPAR on the surface of human MDA-MB-231 breast cancer cells (human, UniProt Q03405 23-305); assay: competition with 1 nM ^125I-labelled human ATF for binding to MDA-MB-231 cell monolayers
T2 construct: whole, on cells; also called cell-surface uPAR

[6] = target: soluble recombinant variant of human uPAR (suPAR) (human) (UniProt Q03405); assay: SPR (Biacore), immobilised human suPAR

cell-surface uPAR on monolayer cultures of human MDA-MB-231 breast cancer cells, sequence (Q03405 23-305): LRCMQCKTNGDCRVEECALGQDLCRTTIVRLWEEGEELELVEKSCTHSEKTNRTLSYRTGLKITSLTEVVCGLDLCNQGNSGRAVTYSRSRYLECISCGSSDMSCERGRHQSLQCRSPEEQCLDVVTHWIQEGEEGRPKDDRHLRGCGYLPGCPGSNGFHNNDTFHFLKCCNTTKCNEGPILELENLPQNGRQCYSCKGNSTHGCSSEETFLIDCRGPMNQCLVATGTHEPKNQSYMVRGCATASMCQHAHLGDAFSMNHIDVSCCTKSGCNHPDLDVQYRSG
soluble recombinant variant of human uPAR (suPAR) (human), sequence (Q03405 23-299, change not shown): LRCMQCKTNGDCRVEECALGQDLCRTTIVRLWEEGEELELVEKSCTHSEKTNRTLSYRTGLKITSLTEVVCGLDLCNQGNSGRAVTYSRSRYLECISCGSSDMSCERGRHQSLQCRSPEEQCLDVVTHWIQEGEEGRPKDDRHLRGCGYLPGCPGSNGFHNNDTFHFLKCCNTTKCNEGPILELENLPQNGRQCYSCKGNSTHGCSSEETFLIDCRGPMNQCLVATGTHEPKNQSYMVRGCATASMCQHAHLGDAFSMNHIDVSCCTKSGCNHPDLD
T2 sequence (Q03405 23-305): as the sequence (Q03405 23-305) above

IC50 ([1]; 1 nM 125I-labelled human ATF, 0.1% BSA, read-out: IC50, inhibition of the binding of ATF to MDA-MB-231 cells): 10 nM | koff [2]: 0.00021 s⁻¹ | off-rate, fold slower than AE78 ([2]; compared with AE78): 48 fold | Relative kdiss ([2]; relative to the Growth Factor Domain of uPA (GFD = 1.0)): 1.5
Molecule: CC(C)C[C@H](NC(=O)[C@H](Cc1ccc(O)cc1)NC(=O)[C@@H](CCCNC(=N)N)NC(=O)[C@@H](CO)NC(=O)[C@H](Cc1ccccc1)NC(=O)[C@H](CC1CCCCC1)NC(=O)[C@@H](N)CC(=O)O)C(=O)N[C@@H](Cc1c[nH]c2ccccc12)C(=O)N[C@@H](CO)C(=O)O [AE105, DchaFsrYLWS]
effectiveness in inhibiting radio-labelled human ATF binding to cell-surface uPAR ([1]; 0.1% bovine serum albumin): more effective than the reference peptide AE78

koff [2]: 4e-05 s⁻¹
Molecule: CC(C)C[C@H](NC(=O)[C@H](Cc1ccc(O)cc1)NC(=O)[C@@H](CCCNC(=N)N)NC(=O)[C@@H](CO)NC(=O)[C@H](Cc1ccccc1)NC(=O)[C@H](CC1CCCCC1)NC(=O)[C@@H](N)CC(=O)O)C(=O)N[C@@H](Cc1c[nH]c2ccccc12)C(=O)N[C@@H](CO)C(=O)NCC(=O)NCCCC[C@H](NC(=O)CNC(=O)[C@H](CO)NC(=O)[C@H](Cc1c[nH]c2ccccc12)NC(=O)[C@H](CC(C)C)NC(=O)[C@H](Cc1ccc(O)cc1)NC(=O)[C@@H](CCCNC(=N)N)NC(=O)[C@@H](CO)NC(=O)[C@H](Cc1ccccc1)NC(=O)[C@H](CC1CCCCC1)NC(=O)[C@@H](N)CC(=O)O)C(=O)O [AE118, [DChaFsrYLWSG]2-K] (I: H-D[Cha]F[dS][dR]YLWSGK-OH / II: H-D[Cha]F[dS][dR]YLWSG; amide I:11-II:C; N-terminus and C-terminus assumed)
ability to inhibit ATF binding after incubation in mouse serum (stability) [3]: only a slight reduction; also recorded: more resistant than AE78

Relative kdiss (relative to GFD) [4]: 72.1 | IC50 [5]: 200 nM
B1: AE78 (peptide)
peptide: AEPMPHSLNFSQYLWYT
notes: also called Clone 20

Relative kdiss (relative to GFD) [4]: 12.9 | koff [4]: 0.00181 s⁻¹
B2: AE112 (peptide)
peptide: DFF[dS][dR]YLWS

Relative kdiss (relative to GFD) [4]: 0.28 | IC50 [5]: 2 nM | fold slower off-rate than the monomer AE105 [6]: 5 to 7 times
B3: AE118 (peptide)
peptide 1: D[Cha]F[dS][dR]YLWSGK
peptide 2: D[Cha]F[dS][dR]YLWSG
modifications: also: lactam at chain A 11 at chain B 10 to a chain's C-terminus
notes: also called [DChaFsrYLWSG]2-K; dimer AE118

Relative kdiss (relative to GFD) [4]: 0.21 | fold slower off-rate than the monomer AE105 [6]: 5 to 7 times
B4: AE120 (peptide)
peptide 1: D[Cha]F[dS][dR]YLWSG[βAla]K
peptide 2: D[Cha]F[dS][dR]YLWSG
modifications: also: lactam at chain A 12 at chain B 10 to a chain's C-terminus

Relative kdiss (relative to GFD) [4]: > 100
B5: AE113 (peptide)
peptide: DNF[dS][dR]YLWS

Relative kdiss (relative to GFD) [4]: 1.5 | fold slower off-rate than AE78 [6]: 48 fold
B6: AE105 (peptide)
peptide: DXFSRYLWS
modifications: beta-cyclohexyl-L-alanine (Cha) at 2; D-Ser at 4; D-Arg at 5
